Results as given in US5084274A, “Inhibition of arterial thrombotic occlusion or thromboembolism” (Scripps Clinic and Research Foundation, priority 1987, dated 1992).

Assays:
[1] = system: platelet deposition in the Dacron graft; experiment: Platelet deposition (thrombus formation) in Dacron graft, arterial thrombosis model, 111In-labeled platelets; format: in vivo, baboon; settings: 1 mg of t-PA (0.1 mg/kg/hour) infusion; previous studies, same model
Protocol: Permanent arteriovenous shunts were prepared between the femoral artery and vein using 3 mm i.d. Silastic tubing Subsequent interposition of 5 cm long, 4 mm i.d. Dacron vascular grafts served as thrombogenic surface, inducing continuous platelet-fibrinthrombus formation until progressive occlusion of the graft at 70±20 min.
All baboons underwent at least one control experiment prior to APC administration. The APC was given by injecting one-fourth to one-third of the total PC dose as a bolus and the remaining three-fourths to two-thirds of the dose as continuous infusion for one hour. The interposition of the graft and bolus injection were made at time=0 and APC was administered at the proximal site of the Silastic shunt. The experiments were divided into three groups; the "low dose" APC group received 2.0-3.4 mg (total), the "high dose" APC group received 11 mg (total), and the combination group received 2.1 mg APC plus 1.3 mg t-PA (total).
Platelet Deposition in the Dacron Graft
The deposition of ^III In-labeled Platelets was detected by scintillation camera images of the graft. […] Inhibition of platelet deposition in treated animals was expressed as % of total number of platelets deposited in the control experiments at 30 and 60 minutes timepoints.

[2] = system: acute myocardial infarction / occluded coronary arteries; settings: cited from earlier work

B1: t-PA: t-PA from a melanoma cell line, provided by Dr. Desire Collen (Leuven, Belgium) (protein, UniProt P00750 36-562, looked up)
Tissue-type plasminogen …: SYQVICRDEKTQMIYQQHQSWLRPVLRSNRVEYCWCNSGRAQCHSVPVKSCSEPRCFNGGTCQQALYFSDFVCQCPEGFAGKCCEIDTRATCYEDQGISYRGTWSTAESGAECTNWNSSALAQKPYSGRRPDAIRLGLGNHNYCRNPDRDSKPWCYVFKAGKYSSEFCSTPACSEGNSDCYFGNGSAYRGTHSLTESGASCLPWNSMILIGKVYTAQNPSAQALGLGKHNYCRNPDGDAKPWCHVLKNRRLTWEYCDVPSCSTCGLRQYSQPQFRIKGGLFADIASHPWQAAIFAKHRRSPGERFLCGGILISSCWILSAAHCFQERFPPHHLTVILGRTYRVVPGEEEQKFEVEKYIVHKEFDDDTYDNDIALLQLKSDSSRCAQESSVVRTVCLPPADLQLPDWTECELSGYGKHEALSPFYSERLKEAHVRLYPSSRCTSQHLLNRTVTDNMLCAGDTRSGGPQANLHDACQGDSGGPLVCLNDGRMTLVGIISWGLGCGQKDVPGVYTKVTNYLDWIRDNMRP
Antiplatelet effect (in words, FIG. 8) [1]: intermediate antiplatelet effect
Patients with reocclusion after discontinuing t-PA infusion ([2]; after successful thrombolytic reperfusion, despite full-dose heparin therapy): between one-four and one-third of patients
Thrombolysis in acute myocardial infarction (in words) ([2]; infusion into humans): effective thrombolysis
